Data taken from patent US20230038878A1 (EVER SUPREME BIO TECHNOLOGY, published 2023).
One block for each molecule: values may come before it.

Tests used:
[1] = target: HLA-G recombinant protein (Origene, CAT #: TP305216) (human) (UniProt P17693); experiment: competitive ELISA; competitor biotinylated LILRB1 on HLA-G recombinant protein
[2] = target: HLA-G recombinant protein (Origene, CAT #: TP305216) (human) (UniProt P17693); experiment: competitive ELISA; competitor biotinylated KIR2DL4 on HLA-G recombinant protein
[3] = target: HLA-G recombinant protein (Origene, CAT #: TP305216) (human) (UniProt P17693); experiment: competitive ELISA on HLA-G recombinant protein; blocked ligand: biotinylated LILRB1
[4] = target: HLA-G recombinant protein (Origene, CAT #: TP305216) (human) (UniProt P17693); experiment: competitive ELISA on HLA-G recombinant protein; blocked ligand: biotinylated KIR2DL4
[5] = target: T1, PD-L1 recombinant protein (Sino Biological, CAT #: 10084-H05H) (UniProt Q9NZQ7 19-239); experiment: SPR
T1 construct: Bought protein; also called programmed death-ligand 1
Experimental: The kinetic analysis of the PD-L1 nanobodies of the present disclosure and the binding affinity analysis of the PD-L1 recombinant protein (Sino Biological, CAT #: 10084-H05H) are performed by SPR analysis.

[6] = target: T2, PD-L1 on PD-L1 aAPC/CHO-K1 cells (PD-1/PD-L1 Blockade Bioassay Kit, Promega) (UniProt Q9NZQ7 19-290, limits assumed); experiment: cell-based or functional assay
[7] = target: T2, PD-L1 on PD-L1 aAPC/CHO-K1 cells …; experiment: cell-based or functional assay; remark: listed apart in the source

T1 sequence (Q9NZQ7 19-239 limits assumed): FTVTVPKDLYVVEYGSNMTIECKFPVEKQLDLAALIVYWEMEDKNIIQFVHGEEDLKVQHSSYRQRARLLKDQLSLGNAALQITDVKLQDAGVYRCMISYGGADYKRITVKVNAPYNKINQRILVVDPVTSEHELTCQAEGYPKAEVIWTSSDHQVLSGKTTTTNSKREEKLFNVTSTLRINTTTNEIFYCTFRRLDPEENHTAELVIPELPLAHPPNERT
T2 sequence (Q9NZQ7 19-290 limits assumed): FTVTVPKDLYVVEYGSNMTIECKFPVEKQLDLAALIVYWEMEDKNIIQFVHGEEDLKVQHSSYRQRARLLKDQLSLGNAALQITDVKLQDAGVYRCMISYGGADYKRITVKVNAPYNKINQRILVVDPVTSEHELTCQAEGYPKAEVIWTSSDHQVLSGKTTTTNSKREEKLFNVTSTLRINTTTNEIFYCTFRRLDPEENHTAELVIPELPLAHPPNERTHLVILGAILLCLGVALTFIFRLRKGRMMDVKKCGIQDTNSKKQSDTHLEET

- IC50 [1]: > 1000 nM
- IC50 [2]: 104 nM
- IC50 (read off the curve) [3]: 7000 nM
- IC50 (read off the curve) [4]: 100 nM
Molecule: HLA-G monoclonal antibody (87G, ThermoFisher)

- Kd [5]: 0.91 nM
- koff [5]: 0.000936 s⁻¹
- kon [5]: 1.03e+06 M⁻¹ s⁻¹
- IC50 for the PD-1 blocking activity (PD-1/PD-L1 Blockade Bioassay, luminescence) [6]: ~0.48 nM
B1: PD-L1 Nb #15 (VHH)
VHH: HVQLVESGGGLVQPGGSLRLSCAASGFTFSSKAMSWVRQAPGKGLDWVSTINSGGGNTYYSDSVKGRFTISRDNAKNTLYLQLNSLKTEDTAMYYCSRCSDIYCGGQYTYRGQGTLVTVSS
notes: Prepared as a free nanobody; also called PD-L1 nanobody

- Kd [5]: 0.86 nM
- koff [5]: 0.00521 s⁻¹
- kon [5]: 6.04e+06 M⁻¹ s⁻¹
- IC50 for the PD-1 blocking activity (PD-1/PD-L1 Blockade Bioassay, luminescence) [6]: ~37.7 nM
- IC50 (read off the curve); PD-1/PD-L1 Blockade Bioassay (Promega), bioluminescence (RLU), which rises with the concentration [7]: ~20 nM
B2: PD-L1 Nb #3 (VHH)
VHH: EVQLVESGGGLVQPGGSLRLSCVASGFTFSSIGMSWVRQAPGKGLEWVSGLNPVGSHTGYADSVKGRFTISRDNAKNTLHLQLNSLKTEDTAMYYCQRGYTCSGDLCERGQGTQVTVSS
notes: as for B1
